“And” between values parts separate entries of the source, which are not always exact repeats. Equal values may be shown once.
B1: Rvb1/2p complex (tag-free) (complex, Saccharomyces cerevisiae)
chain 1: MVAISEVKENPGVNSSNSGAVTRTAAHTHIKGLGLDESGVAKRVEGGFVGQIEAREACGVIVDLIKAKKMSGRAILLAGGPSTGKTALALAISQELGPKVPFCPLVGSELYSVEVKKTETLMENFRRAIGLRIKETKEVYEGEVTELTPEDAENPLGGYGKTISHVIVGLKSAKGTKTLRLDPTIYESIQREKVSIGDVIYIEANTGAVKRVGRSDAYATEFDLETEEYVPLPKGEVHKKKEIVQDVTLHDLDVANARPQGGQDVISMMGQLLKPKKTEITEKLRQEVNKVVAKYIDQGVAELIPGVLFIDEVNMLDIEIFTYLNKALESNIAPVVVLASNRGMTTVRGTEDVISPHGVPPDLIDRLLIVRTLPYDKDEIRTIIERRATVERLQVESSALDLLATMGTETSLRYALQLLAPCGILAQTSNRKEIVVNDVNEAKLLFLDAKRSTKILETSANYL
chain 2: MSIQTSDPNETSDLKSLSLIAAHSHITGLGLDENLQPRPTSEGMVGQLQARRAAGVILKMVQNGTIAGRAVLVAGPPSTGKTALAMGVSQSLGKDVPFTAIAGSEIFSLELSKTEALTQAFRKSIGIKIKEETELIEGEVVEIQIDRSITGGHKQGKLTIKTTDMETIYELGNKMIDGLTKEKVLAGDVISIDKASGKITKLGRSFARSRDYDAMGADTRFVQCPEGELQKRKTVVHTVSLHEIDVINSRTQGFLALFTGDTGEIRSEVRDQINTKVAEWKEEGKAEIVPGVLFIDEVHMLDIECFSFINRALEDEFAPIVMMATNRGVSKTRGTNYKSPHGLPLDLLDRSIIITTKSYNEQEIKTILSIRAQEEEVELSSDALDLLTKTGVETSLRYSSNLISVAQQIAMKRKNNTVEVEDVKRAYLLFLDSARSVKYVQENESQYIDDQGNVQISIAKSADPDAMDTTE
B2: Pih1p-Tah1p complex (His-tagged Pih1p, non-tagged Tah1p) (complex, Saccharomyces cerevisiae)
chain 1: MADFLLRPIKQRHRNEDKYVSVDAADGSVSKIEPIADFVIKTKLLSANGPEKLQDGRKVFINVCHSPLVPKPEVDFNARIVFPLIIQNEWEIPIITSCYRMDHDKKGQECYVWDCCINSDCSRWICDDIQLREILVEWCLESCEIRDSVVLCRDRIAFPKMKKKGAELPALEVLNDELHQDYKAKMHKIIEEEAGDPMSILRGRNDDGDDNNDPDDGTLPPLFPIENKISGAKIEEIDKNEIAHRNLKQAPAPAPAPHEQQEDVPEYEVKMKRFKGAAYKLRILIENKAPNSKPDRFSPSYNFAENILYINGKLSIPLPRDIVVNAADIKIFHIRKERTLYIYI
chain 2: MSQFEKQKEQGNSLFKQGLYREAVHCYDQLITAQPQNPVGYSNKAMALIKLGEYTQAIQMCQQGLRYTSTAEHVAIRSKLQYRLELAQGAVGSVQIPVVEVDELPEGYDRS
B3: DII-truncated Rvb2p (deleting residues 134–234) (natural protein, Saccharomyces cerevisiae, UniProt Q12464 1-471, looked up)
chain: MSIQTSDPNETSDLKSLSLIAAHSHITGLGLDENLQPRPTSEGMVGQLQARRAAGVILKMVQNGTIAGRAVLVAGPPSTGKTALAMGVSQSLGKDVPFTAIAGSEIFSLELSKTEALTQAFRKSIGIKIKEETVVHTVSLHEIDVINSRTQGFLALFTGDTGEIRSEVRDQINTKVAEWKEEGKAEIVPGVLFIDEVHMLDIECFSFINRALEDEFAPIVMMATNRGVSKTRGTNYKSPHGLPLDLLDRSIIITTKSYNEQEIKTILSIRAQEEEVELSSDALDLLTKTGVETSLRYSSNLISVAQQIAMKRKNNTVEVEDVKRAYLLFLDSARSVKYVQENESQYIDDQGNVQISIAKSADPDAMDTTE
B4: Pih1p (His-tagged) (natural protein, Saccharomyces cerevisiae, UniProt P38768 1-344, looked up)
chain: B2 chain 1
B5: Nop58p_447 (truncated Nop58p, residues 1–447) (domain or fragment, Saccharomyces cerevisiae, UniProt Q12499 1-447, looked up)
chain: MAYVLTETSAGYALLKASDKKIYKSSSLIQDLDSSDKVLKEFKIAAFSKFNSAANALEEANSIIEGKVSSQLEKLLEEIKKDKKSTLIVSETKLANAINKLGLNFNVVSDAVTLDIYRAIKEYLPELLPGMSDNDLSKMSLGLAHSIGRHKLKFSADKVDVMIIQAIALLDDLDKELNTYAMRCKEWYGWHFPELAKIVTDSVAYARIILTMGIRSKASETDLSEILPEEIEERVKTAAEVSMGTEITQTDLDNINALAEQIVEFAAYREQLSNYLSARMKAIAPNLTQLVGELVGARLIAHSGSLISLAKSPASTIQILGAEKALFRALKTKHDTPKYGLLYHASLVGQATGKNKGKIARVLAAKAAVSLRYDALAEDRDDSGDIGLESRAKVENRLSQLEGRDLRTTPKVVREAKKVEMTEARAYNADADTAKAASDSESDSDDE
B6: Pih1p 1–284 fragment (domain or fragment, Saccharomyces cerevisiae, UniProt P38768 1-284, looked up)
chain: MADFLLRPIKQRHRNEDKYVSVDAADGSVSKIEPIADFVIKTKLLSANGPEKLQDGRKVFINVCHSPLVPKPEVDFNARIVFPLIIQNEWEIPIITSCYRMDHDKKGQECYVWDCCINSDCSRWICDDIQLREILVEWCLESCEIRDSVVLCRDRIAFPKMKKKGAELPALEVLNDELHQDYKAKMHKIIEEEAGDPMSILRGRNDDGDDNNDPDDGTLPPLFPIENKISGAKIEEIDKNEIAHRNLKQAPAPAPAPHEQQEDVPEYEVKMKRFKGAAYKLRIL

What was measured:
AUC = molecular target: the molecule itself; test: AUC
[1] = molecular target: B1; test: label-free quantitative mass spectrometry
Rvb2p (non-tagged) = Rvb2p (non-tagged) (Saccharomyces cerevisiae, UniProt Q12464 1-471); test: pull-down
[2] = molecular target: B1; test: ITC
Rvb1p (non-tagged) [3] = molecular target: T1, Rvb1p (non-tagged) (Saccharomyces cerevisiae, UniProt Q03940 1-463); test: pull-down
[4] = molecular target: B5; test: cross-linking
Rvb1p (non-tagged) [5] = molecular target: T1, Rvb1p (non-tagged); test: cross-linking
[6] = molecular target: ScR2TP complex (Rvb1p, Rvb2p, His-Pih1p, Tah1p) (Saccharomyces cerevisiae, UniProt Q03940 1-463; Q12464 1-471; P38768 1-344; P25638 1-111); test: AUC
[7] = molecular target: B1; test: AUC

B1: binds (AUC).

For B2, the “stoichiometry N” value [1] was 1.6 Pih1p per 3 Rvb1p and 3 Rvb2p and 0.5 Tah1p per 3 Rvb1p, the binding result (Rvb2p (non-tagged)) was “binds” and the “KD of the first of two serial sites (KD^1), apparent” value [2] was 155 nM. The “KD of the second of two serial sites (KD^2), apparent” value [2] was 1200 nM.

B3: binds (Rvb1p (non-tagged) [3]).

B4: binds [4]; binds (Rvb1p (non-tagged) [5]).

B5: binds [6].

B6: binds [7].

From article PMC6625358 (Structure (London, England : 1993), 2017)
